Experimental data published in US20210277090A1.

Target: trypsin
Assay: cell-based or functional assay

## recombinant ulinastatin polypeptide (T17); mature human ulinastatin with S10A mutation, N-linked glycan at N45 and O-linked glycan at T17 (from UniProt P02760 206-352)
  specific activity of the sample (units of trypsin inhibition): 5000 U/mg
